Target: T1, FZD3 (human (endogenous in hESC-derived EPs)) (UniProt Q9NPG1)
T1 sequence: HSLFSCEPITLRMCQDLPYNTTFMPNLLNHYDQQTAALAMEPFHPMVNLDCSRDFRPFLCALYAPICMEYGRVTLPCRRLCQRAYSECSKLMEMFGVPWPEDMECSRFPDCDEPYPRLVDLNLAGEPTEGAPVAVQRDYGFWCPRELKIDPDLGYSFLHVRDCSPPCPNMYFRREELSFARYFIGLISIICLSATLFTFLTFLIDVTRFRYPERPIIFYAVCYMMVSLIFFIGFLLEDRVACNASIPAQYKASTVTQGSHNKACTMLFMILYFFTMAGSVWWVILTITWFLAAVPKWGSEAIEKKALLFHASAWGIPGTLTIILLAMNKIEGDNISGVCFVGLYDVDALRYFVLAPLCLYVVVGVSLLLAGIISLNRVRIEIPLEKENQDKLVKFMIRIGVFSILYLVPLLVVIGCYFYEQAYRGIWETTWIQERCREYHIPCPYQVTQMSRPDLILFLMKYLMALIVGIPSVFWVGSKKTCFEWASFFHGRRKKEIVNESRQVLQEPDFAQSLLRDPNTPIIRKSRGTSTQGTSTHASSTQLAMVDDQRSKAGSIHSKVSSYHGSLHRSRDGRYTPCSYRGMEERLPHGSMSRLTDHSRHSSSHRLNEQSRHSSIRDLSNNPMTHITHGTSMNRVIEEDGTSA

INS+ cell number (immunofluorescence, day 3) of hESC-derived EPs treated with WNT5A and FZD3-neutralizing antibodies, compared to WNT5A treated EPs: 2.5 fold
B1: WNT5A recombinant protein (ligand)
chain: IIGAQPLCSQLAGLSQGQKKLCHLYQDHMQYIGEGAKTGIKECQYQFRHRRWNCSTVDNTSVFGRVMQIGSRETAFTYAVSAAGVVNAMSRACREGELSTCGCSRAARPKDLPRDWLWGGCGDNIDYGYRFAKEFVDARERERIHAKGSYESARILMNLHNNEAGRRTVYNLADVACKCHGVSGSCSLKTCWLQLADFRKVGDALKEKYDSAAAMRLNSRGKLVQVNSRFNSPTTQDLVYIDPSPDYCVRNESTGSLGTQGRLCNKTSEGMDGCELMCCGRGYDQFKTVQTERCHCKFHWCCYVKCKKCTEIVDQFVCK

— article PMC9005503
